We go through one protein from article PMC3795252, “SLP-76 Sterile α Motif (SAM) and Individual H5 α Helix Mediate Oligomer Formation for Microclusters and T-cell Activation*” (The Journal of Biological Chemistry, 2013).

For orientation: Kd means the concentration at which binding is half-saturated. High values mean lower affinity, low ones higher affinity. The term stoichiometry N denotes a count of units in the complex or per binding partner.

Several values for one entry are separate records, joined by “and”; a condition that tells them apart may be missing. Equal values may be shown once.

Series [1] deals with the molecule itself. The series can be described thus: MST; 10 nM NT-647-labelled protein titrated with the same protein unlabelled (0–90.5 μM, 1:1 dilutions); Monolith NT.115; 25 °C; 10 mM HEPES pH 7.5, 500 mM NaCl, 0.5 mM TCEP, 0.05% Tween 20; constant is of monomer to dimer.
Series [2] deals with the molecule itself. The series can be described thus: dynamic light scattering; purified SAM domain at rising concentrations; 25 °C; DynaPro; hydrodynamic radius compared with radii estimated by HYDROPRO and GRAMM-X for monomer, dimer and tetramer; dimer from 10–20 μM, tetramer >50 μM.

B1: SLP-76 SAM domain (residues 1–78), recombinant, His-tagged (domain or fragment, human, UniProt Q13094 1-78, looked up)
chain: MALRNVPFRSEVLGWDPDSLADYFKKLNYKDCEKAVKKYHIDGARFLNLTENDIQKFPKLRVPILSKLSQEINKNEER
modifications: NT-647 dye coupled to primary amines on the labelled copy used in MST (one label per protein molecule); the titrated copy is unlabelled
notes: SLP-76 (LCP2), human, N-terminal sterile alpha motif (SAM) domain, residues 1-78 (helices H1-H5); Cloned into the NdeI/BamHI sites of pET-20b(+); also called SLP-76 N-terminal SAM domain; H1–5; source: E. coli BL21(DE3), pET-20b(+), soluble fraction purified by Ni2+ column
Turning to B1, in series [1], binding was put at a Kd of 2500 ± 900 nM. In series [2], the “stoichiometry N” value was 2 and 4.
